Results published in IntAct's records for PubMed 18323775.

B1: Zinc finger protein-like 1 (Mus musculus), Q9DB43 (parent)
chain: MGLCKCPKRKVTNLFCFEHRVNVCEHCLVANHAKCIVQSYLQWLQDSDYNPNCRLCNTPLASRETTRLVCYDLFHWACINERAAQLPRNTAPAGYQCPSCNGPIFPPANLAGPVASALREKLATVNWARAGLGLPLIDEVISPEPEPLNSSDFSDWSSFNATTTSVQEERASTPSAPAFYSQAPRPPPSPSRPEQHTVIHMGSTEALAHAPRKVYDTRDDDRTAGIHGDCDDDKYRRRPALGWLAQLLRSRAGSRKRPLTLLQRAGLLLLLGLLGFLALLALMSRLGRAAADSDPNLDPLMNPHIRVGPS
partner: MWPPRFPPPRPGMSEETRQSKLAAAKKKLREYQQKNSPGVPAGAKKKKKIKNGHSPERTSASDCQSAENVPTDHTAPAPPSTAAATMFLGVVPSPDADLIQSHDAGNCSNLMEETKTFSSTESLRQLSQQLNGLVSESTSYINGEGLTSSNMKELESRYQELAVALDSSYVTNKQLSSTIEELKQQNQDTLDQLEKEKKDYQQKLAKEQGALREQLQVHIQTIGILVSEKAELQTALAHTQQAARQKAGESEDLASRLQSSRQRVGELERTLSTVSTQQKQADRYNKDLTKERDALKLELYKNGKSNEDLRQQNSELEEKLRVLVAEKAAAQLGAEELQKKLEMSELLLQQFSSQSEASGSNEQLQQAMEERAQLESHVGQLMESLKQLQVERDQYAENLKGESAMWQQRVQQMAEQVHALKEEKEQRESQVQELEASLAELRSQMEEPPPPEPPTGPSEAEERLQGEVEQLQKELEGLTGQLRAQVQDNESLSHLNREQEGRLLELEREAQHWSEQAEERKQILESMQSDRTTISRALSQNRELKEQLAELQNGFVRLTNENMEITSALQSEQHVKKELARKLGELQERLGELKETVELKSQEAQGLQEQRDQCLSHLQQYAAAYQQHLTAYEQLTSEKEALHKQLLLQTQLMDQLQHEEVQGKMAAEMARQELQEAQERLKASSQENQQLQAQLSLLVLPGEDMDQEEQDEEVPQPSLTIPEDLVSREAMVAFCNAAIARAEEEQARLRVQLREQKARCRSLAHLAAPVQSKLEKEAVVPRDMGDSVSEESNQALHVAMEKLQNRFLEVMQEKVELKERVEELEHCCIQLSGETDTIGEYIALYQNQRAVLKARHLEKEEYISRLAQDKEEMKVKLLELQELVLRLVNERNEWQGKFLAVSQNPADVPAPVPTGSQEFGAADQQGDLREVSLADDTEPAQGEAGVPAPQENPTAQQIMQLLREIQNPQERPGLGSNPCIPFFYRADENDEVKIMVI

Variants of: B1
Conditions: with goga2_rat Golga2, Q62839

Row | effect of a mutation on the interaction | Variant
1 | decreasing interaction | C27A

Variants of: B1
Conditions: with goga2_rat Golga2, Q62839
Remark: another data set of the same source

Row | effect of a mutation on the interaction | Variant
2 | disrupting interaction | C27A

Variants of: B1
Conditions: with goga2_rat Golga2, Q62839
Remark: another data set of the same source

Row | effect of a mutation on the interaction | Variant
3 | disrupting interaction | C6A

Variants of: B1
Conditions: with goga2_rat Golga2, Q62839
Remark: another data set of the same source

Row | effect of a mutation on the interaction | Variant
4 | decreasing interaction | C53A
